B1: MKK4 (activated recombinant kinase) (protein)
chain: MAAPSPSGGGGSGGGSGSGTPGPVGSPAPGHPAVSSMQGKRKALKLNFANPPFKSTARFTLNPNPTGVQNPHIERLRTHSIESSGKLKISPEQHWDFTAEDLKDLGEIGRGAYGSVNKMVHKPSGQIMAVKRIRSTVDEKEQKQLLMDLDVVMRSSDCPYIVQFYGALFREGDCWICMELMSTSFDKFYKYVYSVLDDVIPEEILGKITLATVKALNHLKENLKIIHRDIKPSNILLDRSGNIKLCDFGISGQLVDSIAKTRDAGCRPYMAPERIDPSASRQGYDVRSDVWSLGITLYELATGRFPYPKWNSVFDQLTQVVKGDPPQLSNSEEREFSPSFINFVNLCLTKDESKRPKYKELLKHPFILMYEERAVEVACYVCKILDQMPATPSSPMYVD
B2: JNK1 (activated recombinant kinase) (protein)
chain: MSRSKRDNNFYSVEIGDSTFTVLKRYQNLKPIGSGAQGIVCAAYDAILERNVAIKKLSRPFQNQTHAKRAYRELVLMKCVNHKNIIGLLNVFTPQKSLEEFQDVYIVMELMDANLCQVIQMELDHERMSYLLYQMLCGIKHLHSAGIIHRDLKPSNIVVKSDCTLKILDFGLARTAGTSFMMTPYVVTRYYRAPEVILGMGYKENVDLWSVGCIMGEMVCHKILFPGRDYIDQWNKVIEQLGTPCPEFMKKLQPTVRTYVENRPKYAGYSFEKLFPDVLFPADSEHNKLKASQARDLLSKMLVIDASKRISVDEALQHPYINVWYDPSEAEAPPPKIPDKQLDEREHTIEEWKELIYKEVMDLEERTKNGVIRGQPSPLAQVQQ

How the values were obtained:
GST-tagged CABIN1-L-1-2 = biological target: T1, GST-tagged CABIN1-L-1-2
T1 chain: PEITVTPPTP

[1] = biological target: T2, GST-tagged VIVIT peptide (VIVIT 10-mer)
T2 chain: PVIVITGPHE

GST-tagged VIVIT PPTP = biological target: T3, GST-tagged VIVIT PPTP
T3 chain: PVIVITPPTP

| Protein | in vitro kinase assay (32P incorporation) (GST-tagged CABIN1-L-1-2) | in vitro kinase assay (32P incorporation) [1] | in vitro kinase assay (32P incorporation) (GST-tagged VIVIT PPTP) |
| --- | --- | --- | --- |
| B1 | the MAPK family (EKR, JNK, and p38) and MKK4 directly phosphorylate CABIN1 peptide |  |  |
| B2 | ERK2, JNK1, and p38a phosphorylate purified recombinant GST-tagged peptide containing PPTP sequence (CABIN1-L-1-2 and VIVIT PPTP), but not GST-tagged VIVIT peptide | but not GST-tagged VIVIT peptide | ERK2, JNK1, and p38a phosphorylate purified recombinant GST-tagged peptide containing PPTP sequence (CABIN1-L-1-2 and VIVIT PPTP), but not GST-tagged VIVIT peptide |

Source: patent US20240376163
